From the supplement of paper PMC10567573

B1: GLTSCR2 (parent)
chain: FQRRNMIEPRERAKFKRKYKVKLV

Variants of: B1
Assay: protein stability index of a GFP-peptide fusion (GPS, HEK-293T) (PSI 1-6); higher = more stable
Settings: c terminus: a fixed tail appended
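Further: lentivirally expressed fusions sorted by FACS into six bins by GFP to DsRed ratio, PSI derived from sequencing read proportions per bin multiplied by bin number.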

| Variant | protein stability index |
| --- | --- |
| FQRRNKIEPRERAKFKRKYKVKLV [M6K] | 2.52 |
| FQRRNYIEPRERAKFKRKYKVKLV [M6Y] | 2.48 |
| FQRRNPIEPRERAKFKRKYKVKLV [M6P] | 2.25 |
| FQRRNVIEPRERAKFKRKYKVKLV [M6V] | 2.14 |
| FQRRNMIEPRERAAFKRKYKVKLV [K14A] | 1.81 |
| FQRRNMIEPRERAYFKRKYKVKLV [K14Y] | 2.39 |
| FQRRNMIEPRERAIFKRKYKVKLV [K14I] | 2.5 |
| FQRRNMIEPRERAMFKRKYKVKLV [K14M] | 1.97 |
| FQRRNMIEPRERAQFKRKYKVKLV [K14Q] | 1.99 |
| FQRRNMIEPRERASFKRKYKVKLV [K14S] | 2.3 |
| FQRRNMIEPRERAVFKRKYKVKLV [K14V] | 2.17 |
| FQRRNMIEPRERAKFERKYKVKLV [K16E] | 1.86 |
| FQRRNMIEPRERAKFQRKYKVKLV [K16Q] | 1.87 |
| FQRRNMIEPRERAKFTRKYKVKLV [K16T] | 2.29 |
| FQRRNMIEPRERAKFVRKYKVKLV [K16V] | 1.86 |
| FQRRNMIEPRERAKVKRKYKVKLV [F15V] | 2.81 |
| FQRRNMIEPRERAKTKRKYKVKLV [F15T] | 2.66 |
| FQRRNMIEPRERAKIKRKYKVKLV [F15I] | 2.51 |
| FQRRNMIEPRERAKLKRKYKVKLV [F15L] | 3.05 |
| FQRRNMIEPRERAKPKRKYKVKLV [F15P] | 2.44 |
| FQRRNMIEPRERAKDKRKYKVKLV [F15D] | 2.32 |
| FQRRNMIEPRERAKMKRKYKVKLV [F15M] | 2.76 |
| FQRRNMIEPRERAKKKRKYKVKLV [F15K] | 3.05 |
| FQRRNMIEPRYRAKFKRKYKVKLV [E11Y] | 1.91 |

| Variant | protein stability index |
| --- | --- |
| FQRRNMIEPRGRAKFKRKYKVKLV [E11G] | 2.4 |
| FQRRNMIEPRLRAKFKRKYKVKLV [E11L] | 2.63 |
| FQRRNMIEPRWRAKFKRKYKVKLV [E11W] | 2.81 |
| FQRRNMIEPRFRAKFKRKYKVKLV [E11F] | 2.37 |
| FQRRNMIEPRMRAKFKRKYKVKLV [E11M] | 2.37 |
| FQRRNMIEPRPRAKFKRKYKVKLV [E11P] | 2.66 |
| FQRRNMIEPRARAKFKRKYKVKLV [E11A] | 2.54 |
| FQRRNMIEPRERAKFKRKYKTKLV [V21T] | 3.07 |
| FQRRNMIEPRERAKFKRKYKKKLV [V21K] | 3.29 |
| FQRRNMIEPRERAKFKRKYKWKLV [V21W] | 2.44 |
| FQRRNMIEPRERAKFKRKYKRKLV [V21R] | 2.86 |
| FQRRNMIEPRERAKFKRKYKGKLV [V21G] | 2.52 |
| FQRRNMIEPRERAKFKRKYKDKLV [V21D] | 3.31 |
| FQRRNMIEPRERAKFKRKYKCKLV [V21C] | 2.97 |
| FQRRNMIEPRERAKFKRKYKPKLV [V21P] | 2.33 |
| FQRRNMIEPRERAKFKRKYKLKLV [V21L] | 2.28 |
| FQRRNMIEPRERAKFKRKYKSKLV [V21S] | 2.5 |
| FQRRNMIEPRERAKFKRKMKVKLV [Y19M] | 2.75 |
| FQRRNMIEPRERAKFKRKSKVKLV [Y19S] | 2.88 |
| FQRRNMIEPRERAKFKRKWKVKLV [Y19W] | 2.39 |
| FQRRNMIEPRERAKFKRKHKVKLV [Y19H] | 2.93 |
| FQRRNMIEPRERAKFKRKTKVKLV [Y19T] | 2.37 |
| FQRRNMIEPRERAKFKRKQKVKLV [Y19Q] | 2.87 |
| FQRRNMIEPRERAKFKRKRKVKLV [Y19R] | 3.5 |

| Variant | protein stability index |
| --- | --- |
| FQRRNMIEPRERAKFKRKLKVKLV [Y19L] | 2.75 |
| CQRRNMIEPRERAKFKRKYKVKLV [F1C] | 2.69 |
| HQRRNMIEPRERAKFKRKYKVKLV [F1H] | 2.69 |
| DQRRNMIEPRERAKFKRKYKVKLV [F1D] | 2.83 |
| QQRRNMIEPRERAKFKRKYKVKLV [F1Q] | 2.99 |
| MQRRNMIEPRERAKFKRKYKVKLV [F1M] | 2.08 |
| KQRRNMIEPRERAKFKRKYKVKLV [F1K] | 2.96 |
| IQRRNMIEPRERAKFKRKYKVKLV [F1I] | 3.03 |
| SQRRNMIEPRERAKFKRKYKVKLV [F1S] | 2.77 |
| WQRRNMIEPRERAKFKRKYKVKLV [F1W] | 2.41 |
| FQRRNMIEPREDAKFKRKYKVKLV [R12D] | 2.31 |
| FQRRNMIEPREMAKFKRKYKVKLV [R12M] | 2.69 |
| FQRRNMIEPREHAKFKRKYKVKLV [R12H] | 2.19 |
| FQRRNMIEPREVAKFKRKYKVKLV [R12V] | 1.5 |
| FQRRNMIEPRECAKFKRKYKVKLV [R12C] | 2 |
| FQRRNMIEPPERAKFKRKYKVKLV [R10P] | 2.2 |
| FQRRNMIEPSERAKFKRKYKVKLV [R10S] | 2.13 |
| FQRRNMIEPNERAKFKRKYKVKLV [R10N] | 1.63 |
| FQRRNMIEPAERAKFKRKYKVKLV [R10A] | 2.56 |
| FQRRNMIEPGERAKFKRKYKVKLV [R10G] | 2.12 |
| FQRRNMIEPDERAKFKRKYKVKLV [R10D] | 2.58 |
| FQRRNMIEPTERAKFKRKYKVKLV [R10T] | 1.99 |
| FQRRNMIEPCERAKFKRKYKVKLV [R10C] | 3.03 |
| FQRRNMIEPHERAKFKRKYKVKLV [R10H] | 1.95 |

| Variant | protein stability index |
| --- | --- |
| FQRRNMIEPRERAKFKRKYKVKLN [V24N] | 2.49 |
| FQRRNMIEPRERAKFKRKYKVKLR [V24R] | 2.71 |
| FQRRNMIEPRERAKFKRKYKVKLE [V24E] | 2.96 |
| FQRRNMIEPRERAKFKRKYKVKLT [V24T] | 2.93 |
| FQRRNMIEPRERAKFKRKYKVKLQ [V24Q] | 2.62 |
| FQRRNMIEPRERAKFKRKYKVKLL [V24L] | 1.92 |
| FQRRNMIEPRERAKFKRLYKVKLV [K18L] | 1.72 |
| FQRRNMIEPRERAKFKRIYKVKLV [K18I] | 2.45 |
| FQRRNMIEPRERAKFKRTYKVKLV [K18T] | 2.24 |
| FQRRNMIEPRERAKFKRNYKVKLV [K18N] | 2.4 |
| FQRRNMIEPRERAKFKRFYKVKLV [K18F] | 1.61 |
| FQRRNMIEPRERAKFKRRYKVKLV [K18R] | 2.32 |
| FQRRNMIEPRERAKFKRWYKVKLV [K18W] | 2.3 |
| FQRRNMIEPRERAKFKRPYKVKLV [K18P] | 1.92 |
| FQRRNMIEPRERAKFKRYYKVKLV [K18Y] | 1.71 |
| FQRRNMIEPRERAKFKRAYKVKLV [K18A] | 2.25 |
| FQRRNMIEPRERAKFKTKYKVKLV [R17T] | 2.56 |
| FQRRNMIEPRERAKFKEKYKVKLV [R17E] | 2.24 |
| FQRRNMIEPRERAKFKWKYKVKLV [R17W] | 2.1 |
| FQRRNMIEPRERAKFKVKYKVKLV [R17V] | 1.96 |
| FQRRNMIEPRERAKFKNKYKVKLV [R17N] | 2.63 |
| FQRRNMIEPRERAKFKMKYKVKLV [R17M] | 2.94 |
